Assay results taken from paper PMC11414387.

Target: FBXO11 (UniProt Q86XK2)
Test: co-IP of exogenous proteins
Conditions: reference: wild type

Row | Substance | binding against the reference (sites S33) | binding against the reference (sites S37)
1 | β-catenin (from UniProt P35222) S33A | lost | 
2 | β-catenin (from UniProt P35222) S37A |  | lost
